Usually stoichiometry N stands for a count of units in the complex or per binding partner.

Here are results for three substances from article doi:10.1101/2023.03.28.534543.

Holding throughout (test): SEC
(SEC sorts molecules by how far they enter the pores of the column.)

For assay [1], the target named is SepF from Archaeoglobus fulgidus (Archaeoglobus fulgidus).
In assay [2] the target is CdpB2 from Archaeoglobus fulgidus (Archaeoglobus fulgidus).
Assay [3] deals with CdpB1 from Archaeoglobus fulgidus (Archaeoglobus fulgidus).

“SepF from Archaeoglobus fulgidus (natural protein)”: in assay [1], the stoichiometry N was found to be 2.

For “CdpB2 from Archaeoglobus fulgidus (natural protein)”, in assay [2], the stoichiometry N came to 2.

In assay [3], “CdpB1 from Archaeoglobus fulgidus (natural protein)” gave a stoichiometry N of 2.
